Experimental data taken from patent publication US20240116985A1, “STAPLED PEPTIDES AND METHODS THEREOF” (priority 2020, published 2024).
Where “and” joins values, the source holds several entries; their conditions need not be identical. Equal entries are not always repeated. Starred links: 1 amine or outer side, 2 acyl side, 3 side chain; linkers in the order of their positions; H or OH if unused. Positions of bridges follow the written chain, without caps; N, C: chain ends. Non-standard residues stand in square brackets, D forms with d. PyrS2 = (S)-3-amino-1-((pent-4-en-1-yloxy)carbonyl)pyrrolidine-3-carboxylic acid, C=CCCCOC(=O)N1CC[C@@](N[*:1])(C(=O)[*:2])C1; B5 = 2-amino-2-(pent-4-en-1-yl)hept-6-enoic acid, C=CCCCC(CCCC=C)(N[*:1])C(=O)[*:2]; Bta = N[C@@H](Cc1csc2ccccc12)C(=O)O; αAllylPro = C=CC[C@@]1(C(=O)O)CCCN1; tBuAla = CC(C)(C)C[C@H](N)C(=O)O; 3Thi = N[C@@H](Cc1ccsc1)C(=O)O

How the values were obtained:
[1] = target: beta-catenin-Halo (NanoBRET construct expressed in HEK293 cells) (Homo sapiens (Human)) (UniProt P35222); experiment: NanoBRET, HEK293 cells with Bcat-Halo and TCF4-Luc; plate row G (0.625 uM by plate map), plate column 7
[2] = target: beta-catenin-Halo (NanoBRET construct expressed in HEK293 cells) (Homo sapiens (Human)) (UniProt P35222); experiment: NanoBRET, HEK293 cells with Bcat-Halo and TCF4-Luc; plate row G (0.625 uM by plate map), plate column 6
[3] = target: beta-catenin-Halo (NanoBRET construct expressed in HEK293 cells) (Homo sapiens (Human)) (UniProt P35222); experiment: NanoBRET, HEK293 cells with Bcat-Halo and TCF4-Luc; plate row E (2.5 uM by plate map), plate column 7
[4] = target: beta-catenin-Halo (NanoBRET construct expressed in HEK293 cells) (Homo sapiens (Human)) (UniProt P35222); experiment: NanoBRET, HEK293 cells with Bcat-Halo and TCF4-Luc; plate row B (20 uM by plate map), plate column 5
[5] = target: beta-catenin-Halo NanoBRET construct (Homo sapiens (Human)) (UniProt P35222); experiment: NanoBRET, Bcat-Halo/TCF4-Luc in HEK293 cells; peptide 5 uM; replicate 3; competitor TCF4-Luc
[6] = target: beta-catenin-Halo (NanoBRET construct expressed in HEK293 cells) (Homo sapiens (Human)) (UniProt P35222); experiment: NanoBRET, HEK293 cells with Bcat-Halo and TCF4-Luc; plate row C (10 uM by plate map), plate column 6
[7] = target: beta-catenin-Halo NanoBRET construct (Homo sapiens (Human)) (UniProt P35222); experiment: NanoBRET, Bcat-Halo/TCF4-Luc in HEK293 cells; peptide 20 uM; replicate 1; competitor TCF4-Luc
[8] = target: beta-catenin-Halo NanoBRET construct (Homo sapiens (Human)) (UniProt P35222); experiment: NanoBRET, Bcat-Halo/TCF4-Luc in HEK293 cells; peptide 0.625 uM; replicate 3; competitor TCF4-Luc
[9] = target: beta-catenin-Halo NanoBRET construct (Homo sapiens (Human)) (UniProt P35222); experiment: NanoBRET raw acceptor reading, Bcat-Halo/TCF4-Luc in HEK293 cells; plate row B (20 uM by plate map); competitor TCF4-Luc
[10] = target: beta-catenin-Halo NanoBRET construct (Homo sapiens (Human)) (UniProt P35222); experiment: NanoBRET, Bcat-Halo/TCF4-Luc in HEK293 cells; peptide 20 uM; replicate 2; competitor TCF4-Luc
[11] = target: full-length beta-Catenin (Uniprot ID P35222) (Homo sapiens (Human)) (UniProt P35222); experiment: fluorescence polarization competition: peptide titrated against 10 nM full-length beta-catenin + 10 nM 5FAM-TCF4(10-53) probe
[12] = target: beta-catenin-Halo NanoBRET construct (Homo sapiens (Human)) (UniProt P35222); experiment: NanoBRET, Bcat-Halo/TCF4-Luc in HEK293 cells; peptide 10 uM; replicate 2; competitor TCF4-Luc
[13] = target: beta-catenin-Halo NanoBRET construct (Homo sapiens (Human)) (UniProt P35222); experiment: NanoBRET, Bcat-Halo/TCF4-Luc in HEK293 cells; peptide 1.25 uM; replicate 1; competitor TCF4-Luc
[14] = target: beta-catenin-Halo NanoBRET construct (Homo sapiens (Human)) (UniProt P35222); experiment: NanoBRET, Bcat-Halo/TCF4-Luc in HEK293 cells; peptide 0.625 uM; replicate 2; competitor TCF4-Luc
[15] = target: beta-catenin-Halo NanoBRET construct (Homo sapiens (Human)) (UniProt P35222); experiment: NanoBRET, Bcat-Halo/TCF4-Luc in HEK293 cells; peptide 10 uM; replicate 3; competitor TCF4-Luc
[16] = target: beta-catenin-Halo NanoBRET construct (Homo sapiens (Human)) (UniProt P35222); experiment: NanoBRET, Bcat-Halo/TCF4-Luc in HEK293 cells; peptide 2.5 uM; replicate 3; competitor TCF4-Luc
[17] = target: beta-catenin-Halo NanoBRET construct (Homo sapiens (Human)) (UniProt P35222); experiment: NanoBRET raw acceptor reading, Bcat-Halo/TCF4-Luc in HEK293 cells; plate row G (0.625 uM by plate map); competitor TCF4-Luc
[18] = target: beta-catenin-Halo NanoBRET construct (Homo sapiens (Human)) (UniProt P35222); experiment: NanoBRET, Bcat-Halo/TCF4-Luc in HEK293 cells; peptide 2.5 uM; replicate 2; competitor TCF4-Luc
[19] = target: beta-catenin-Halo NanoBRET construct (Homo sapiens (Human)) (UniProt P35222); experiment: NanoBRET raw acceptor reading, Bcat-Halo/TCF4-Luc in HEK293 cells; plate row D (5 uM by plate map); competitor TCF4-Luc
[20] = target: beta-catenin-Halo (NanoBRET construct expressed in HEK293 cells) (Homo sapiens (Human)) (UniProt P35222); experiment: NanoBRET, HEK293 cells with Bcat-Halo and TCF4-Luc; plate row F (1.25 uM by plate map), plate column 5
[21] = target: beta-catenin-Halo NanoBRET construct (Homo sapiens (Human)) (UniProt P35222); experiment: NanoBRET, Bcat-Halo/TCF4-Luc in HEK293 cells; peptide 1.25 uM; replicate 3; competitor TCF4-Luc
[22] = target: beta-catenin-Halo NanoBRET construct (Homo sapiens (Human)) (UniProt P35222); experiment: NanoBRET raw acceptor reading, Bcat-Halo/TCF4-Luc in HEK293 cells; plate row C (10 uM by plate map); competitor TCF4-Luc
[23] = target: beta-catenin-Halo (NanoBRET construct expressed in HEK293 cells) (Homo sapiens (Human)) (UniProt P35222); experiment: NanoBRET, HEK293 cells with Bcat-Halo and TCF4-Luc; plate row C (10 uM by plate map), plate column 7
[24] = target: beta-catenin-Halo (NanoBRET construct expressed in HEK293 cells) (Homo sapiens (Human)) (UniProt P35222); experiment: NanoBRET, HEK293 cells with Bcat-Halo and TCF4-Luc; plate row C (10 uM by plate map), plate column 5
[25] = target: beta-catenin-Halo (NanoBRET construct expressed in HEK293 cells) (Homo sapiens (Human)) (UniProt P35222); experiment: NanoBRET, HEK293 cells with Bcat-Halo and TCF4-Luc; plate row F (1.25 uM by plate map), plate column 6

beta-catenin-Halo NanoBRET construct (Homo sapiens (Human)), sequence (P35222 whole entry): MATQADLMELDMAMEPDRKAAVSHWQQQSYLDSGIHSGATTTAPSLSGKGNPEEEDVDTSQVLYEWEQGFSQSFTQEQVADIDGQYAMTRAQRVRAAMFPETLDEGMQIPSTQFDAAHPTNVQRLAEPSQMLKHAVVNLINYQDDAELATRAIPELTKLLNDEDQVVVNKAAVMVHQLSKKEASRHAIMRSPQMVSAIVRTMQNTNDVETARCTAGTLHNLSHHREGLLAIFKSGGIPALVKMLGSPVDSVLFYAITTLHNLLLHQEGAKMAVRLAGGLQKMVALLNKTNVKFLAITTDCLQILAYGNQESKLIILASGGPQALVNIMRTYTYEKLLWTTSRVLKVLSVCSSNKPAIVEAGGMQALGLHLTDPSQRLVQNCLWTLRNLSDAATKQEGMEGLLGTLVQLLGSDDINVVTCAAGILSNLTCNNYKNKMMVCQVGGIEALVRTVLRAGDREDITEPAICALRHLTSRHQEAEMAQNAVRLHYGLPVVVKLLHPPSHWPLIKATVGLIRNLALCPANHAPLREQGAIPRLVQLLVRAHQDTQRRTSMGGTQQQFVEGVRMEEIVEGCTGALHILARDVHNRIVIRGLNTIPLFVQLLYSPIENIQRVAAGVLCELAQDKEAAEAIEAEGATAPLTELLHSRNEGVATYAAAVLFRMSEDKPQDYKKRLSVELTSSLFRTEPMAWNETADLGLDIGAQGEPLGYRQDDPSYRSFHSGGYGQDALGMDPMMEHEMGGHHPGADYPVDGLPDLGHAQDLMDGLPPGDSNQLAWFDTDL
beta-catenin-Halo (NanoBRET construct expressed in HEK293 cells) (Homo sapiens (Human)), sequence (P35222 whole entry): as above
full-length beta-Catenin (Uniprot ID P35222) (Homo sapiens (Human)), sequence (P35222 2-781 limits assumed): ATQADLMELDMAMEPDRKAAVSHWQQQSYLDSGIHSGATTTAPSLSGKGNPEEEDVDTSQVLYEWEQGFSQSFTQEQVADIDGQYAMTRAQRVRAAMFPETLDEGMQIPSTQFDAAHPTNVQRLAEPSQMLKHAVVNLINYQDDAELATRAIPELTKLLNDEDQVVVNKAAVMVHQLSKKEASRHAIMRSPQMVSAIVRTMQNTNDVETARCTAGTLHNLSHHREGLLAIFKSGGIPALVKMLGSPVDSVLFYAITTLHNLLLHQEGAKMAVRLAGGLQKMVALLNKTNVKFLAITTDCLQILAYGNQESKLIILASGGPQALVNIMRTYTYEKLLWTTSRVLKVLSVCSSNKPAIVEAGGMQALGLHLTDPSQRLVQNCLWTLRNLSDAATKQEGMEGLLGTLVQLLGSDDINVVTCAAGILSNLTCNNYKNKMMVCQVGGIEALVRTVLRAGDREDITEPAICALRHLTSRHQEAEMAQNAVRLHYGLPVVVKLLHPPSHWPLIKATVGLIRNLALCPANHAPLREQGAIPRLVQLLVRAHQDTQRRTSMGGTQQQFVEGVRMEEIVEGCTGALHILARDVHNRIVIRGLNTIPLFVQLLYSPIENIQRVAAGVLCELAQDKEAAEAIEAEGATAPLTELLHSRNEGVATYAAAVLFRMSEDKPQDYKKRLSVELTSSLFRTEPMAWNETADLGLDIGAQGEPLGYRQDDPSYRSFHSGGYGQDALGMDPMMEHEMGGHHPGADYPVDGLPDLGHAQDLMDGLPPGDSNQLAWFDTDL

## Ac-[αAllylPro]F[tBuAla][B5]DDAADN[PyrS2][3Thi][Bta]Q-NH2 (staple 1-4, 4-11) [I-797]
[1]
  NanoBRET donor emission 450 BP (raw reading): 47600
[2]
  NanoBRET donor emission 450 BP (raw reading): 35700
[3]
  NanoBRET donor emission 450 BP (raw reading): 40100
[4]
  NanoBRET donor emission 450 BP (raw reading): 58500
[5]
  % Inhibition: -18.6%
[6]
  NanoBRET donor emission 450 BP (raw reading): 25900
[7]
  % Inhibition: -36.7%
[8]
  % Inhibition: 8.3%
[9]
  Acceptor 600 LP emission: 860 and 660 and 640
[10]
  % Inhibition: -0.3%
[11]
  EC50: 10 µM
[12]
  % Inhibition: -21.9%
[13]
  % Inhibition: -24.8%
[14]
  % Inhibition: -6.9%
[15]
  % Inhibition: 1.7%
[16]
  % Inhibition: -11.7%
[17]
  Acceptor 600 LP emission: 410 and 440 and 530
[18]
  % Inhibition: 26.5%
[19]
  Acceptor 600 LP emission: 510 and 420 and 630
[20]
  NanoBRET donor emission 450 BP (raw reading): 21800
[21]
  % Inhibition: -4%
[22]
  Acceptor 600 LP emission: 790 and 350 and 470
[23]
  NanoBRET donor emission 450 BP (raw reading): 40400
[24]
  NanoBRET donor emission 450 BP (raw reading): 58500
[25]
  NanoBRET donor emission 450 BP (raw reading): 34500
